In the supplement of paper PMC7125110:
± gives the standard error. Variants at the floor of the assay were thinned out.

B1: glmS ribozyme (parent)
chain: AUAAAAGCGCCAGAACUACAGAAAUGUAGUUGACGAGGAGGAGGUUUAUCGAAUUUUCGGCGGAUGCCUCCAAA

Variants of: B1
Experiment: self-cleavage kobs at 640 uM GlcN6P; higher = faster cleavage; RNA array
Conditions: with glucosamine-6-phosphate
Outline: (§1)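 Glucosamine-6-phosphate in HEPES/KCl/Mg(OAc)2 buffer, at 40 μM to 10 mM, was flowed over barcoded ribozyme variants transcribed in situ by E. coli RNA polymerase on sequenced MiSeq chips. Tracking was through a hybridised Cy3 probe at 37 °C. kobs, kcat and KM came from exponential decay fits and weighted Michaelis–Menten fits of normalised per-tile medians.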

Variant | self-cleavage kobs at 640 uM GlcN6P
A33G G41C G63U | < 1e-05 s⁻¹
A33U G60A A64G | < 1e-05 s⁻¹
C16G A36C G51A G59C C61G | < 1e-05 s⁻¹
A6G C11G G13C C61G | < 1e-05 s⁻¹
U30A G51C | < 1e-05 s⁻¹
A15G A39C A53U | 0.000793 ± 0.00012 s⁻¹
A15G U49A C58A U69A C70U | 0.00014 ± 3.9e-05 s⁻¹
G13A G40A G44U C67U C68G | < 1e-05 s⁻¹
A12C U30A U56A | 0.000365 ± 0.00012 s⁻¹
A6U C16U G41U | < 1e-05 s⁻¹
C8A U31A G38C G40U C50G G60C C71A | < 1e-05 s⁻¹
U65G G66C | 0.000223 ± 4.9e-05 s⁻¹
A36G G40U A52U U65C | < 1e-05 s⁻¹
U30G U54A C67G | 0.000105 ± 2.2e-05 s⁻¹
C16A G62U C71G | < 1e-05 s⁻¹
G41A G51A C68G | < 1e-05 s⁻¹
G44C A48U C50A | < 1e-05 s⁻¹
G35A U65C U69C | < 1e-05 s⁻¹
U65G A72C | 0.000308 ± 7.4e-05 s⁻¹
G40C C67G C70G | < 1e-05 s⁻¹
A14U A36C U47C | < 1e-05 s⁻¹
A14U A15G G60U G66A | < 1e-05 s⁻¹
C50G A53U A64G | < 1e-05 s⁻¹
A33C U54G C71U | 7.35e-05 ± 2.2e-05 s⁻¹
A14C C34U U54C | < 1e-05 s⁻¹
A6G C67G C68A | 7.11e-05 ± 3.1e-05 s⁻¹
A33C G35A G41A | < 1e-05 s⁻¹

Variant | self-cleavage kobs at 640 uM GlcN6P
G7U G40C U49A | < 1e-05 s⁻¹
G9C U31G U57A | < 1e-05 s⁻¹
G29U A33U G44A | < 1e-05 s⁻¹
A14G G40U C61G | < 1e-05 s⁻¹
G9C A15C A53U | < 1e-05 s⁻¹
A15U G38U G63U | < 1e-05 s⁻¹
A52G U54A C68U | 6.73e-05 ± 2e-05 s⁻¹
A14C G41A G62U C70G | < 1e-05 s⁻¹
U2C G35U C68U | < 1e-05 s⁻¹
A14G U47A G66C | 0.000364 ± 0.00011 s⁻¹
G7C A15U G43A A48G C67A | < 1e-05 s⁻¹
G9U C34A G59U G63A | < 1e-05 s⁻¹
G9U G41A A42U | < 1e-05 s⁻¹
G29U A33C G41A U49C G60A U65C | < 1e-05 s⁻¹
A15C G37C C70U | < 1e-05 s⁻¹
G13C G37C U45G | < 1e-05 s⁻¹
U55G G63U | < 1e-05 s⁻¹
A53G U54G U55G C61A C70U | 0.000595 ± 0.00019 s⁻¹
G60C C68G C70U | < 1e-05 s⁻¹
A39U U56A A72U | 0.000916 ± 0.00022 s⁻¹
G35U C58U A64U C68A | < 1e-05 s⁻¹
A33C C34A U57G | < 1e-05 s⁻¹
A6U G43U C70G | < 1e-05 s⁻¹
G7C A36C U56A | < 1e-05 s⁻¹
U30C G38U U57C A64G | < 1e-05 s⁻¹
U30C G63U C68G | 9.11e-05 ± 1.9e-05 s⁻¹
A6C A12U G51U U54G | < 1e-05 s⁻¹

Variants of: B1
Experiment: self-cleavage kobs at 10000 uM GlcN6P; higher = faster cleavage; RNA array
Conditions: with glucosamine-6-phosphate
Outline: as §1

Variant | self-cleavage kobs at 10000 uM GlcN6P
A33G G41C G63U | < 1e-05 s⁻¹
U30A G51C | < 1e-05 s⁻¹
G13A G40A G44U C67U C68G | < 1e-05 s⁻¹
A12C U30A U56A | 0.00357 ± 0.00086 s⁻¹
U65G G66C | 0.00137 ± 0.00016 s⁻¹
C10U C16U A33U | 3.41e-05 ± 1.4e-05 s⁻¹
G40C C67G C70G | < 1e-05 s⁻¹
A14C C34U U54C | < 1e-05 s⁻¹
A36C G51C C71G | < 1e-05 s⁻¹
G43A U47A | 4.61e-05 ± 1.8e-05 s⁻¹
A14G U47A G66C | 0.00125 ± 0.00022 s⁻¹

Variants of: B1
Experiment: self-cleavage kobs at 2500 uM GlcN6P; higher = faster cleavage; RNA array
Conditions: with glucosamine-6-phosphate
Outline: as §1

Variant | self-cleavage kobs at 2500 uM GlcN6P
A33U G60A A64G | < 1e-05 s⁻¹
C16G A36C G51A G59C C61G | < 1e-05 s⁻¹
A6G C11G G13C C61G | < 1e-05 s⁻¹
A33U C34A G44U A52C | < 1e-05 s⁻¹
U31A G32A A64G | 0.000169 ± 4.6e-05 s⁻¹
A15G A39C A53U | 0.00236 ± 0.00069 s⁻¹
G13A G40A G44U C67U C68G | < 1e-05 s⁻¹
A12C U30A U56A | 0.00105 ± 0.00026 s⁻¹
C10U C16U A33U | 6.87e-05 ± 3.4e-05 s⁻¹
C16A G62U C71G | < 1e-05 s⁻¹
G44C C58G G63A C67G | < 1e-05 s⁻¹
G40A A72C | 0.00214 ± 0.00067 s⁻¹
C11A A52U U65C | < 1e-05 s⁻¹
A33C U54G C71U | 0.000178 ± 4.9e-05 s⁻¹
A14C C34U U54C | < 1e-05 s⁻¹
A33C G35A G41A | < 1e-05 s⁻¹
G29U A33U G44A | < 1e-05 s⁻¹
A14G G40U C61G | < 1e-05 s⁻¹
C16U G37A U46C U56G | 0.000119 ± 2.7e-05 s⁻¹

Variant | self-cleavage kobs at 2500 uM GlcN6P
U57G C58A C70U C71G | 9.31e-05 ± 2.5e-05 s⁻¹
A36C G51C C71G | < 1e-05 s⁻¹
A14C G41A G62U C70G | < 1e-05 s⁻¹
G32A U54A C70G | 0.000378 ± 5.3e-05 s⁻¹
G43A U47A | 1.85e-05 ± 8.2e-06 s⁻¹
A14G U47A G66C | 0.00101 ± 0.00023 s⁻¹
G7C A15U G43A A48G C67A | < 1e-05 s⁻¹
G9U C34A G59U G63A | < 1e-05 s⁻¹
C10A A15U A42C G44C U56A C67G C70G | < 1e-05 s⁻¹
G9U G41A A42U | < 1e-05 s⁻¹
G13C G37C U45G | < 1e-05 s⁻¹
U55G G63U | < 1e-05 s⁻¹
A53G U54G U55G C61A C70U | 7.21e-05 ± 2.5e-05 s⁻¹
G60C C68G C70U | < 1e-05 s⁻¹
A39U U56A A72U | 0.00356 ± 0.00049 s⁻¹
U47A U56G C68A | 7.37e-05 ± 3.6e-05 s⁻¹
U30C G63U C68G | 5.6e-05 ± 1.4e-05 s⁻¹
A6C A12U G51U U54G | < 1e-05 s⁻¹
